Measurements from publication PMC6649833.

Assays:
[1] = molecular target: T1, N15 Cro-His6 (bacteriophage N15, UniProt Q37964 1-71); assay: EMSA
T1 sequence: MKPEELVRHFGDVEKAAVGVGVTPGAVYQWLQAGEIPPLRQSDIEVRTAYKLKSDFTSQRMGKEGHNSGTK

[2] = molecular target: T2, N15 Cro (bacteriophage N15, UniProt Q37964 1-71); assay: EMSA
T2 sequence: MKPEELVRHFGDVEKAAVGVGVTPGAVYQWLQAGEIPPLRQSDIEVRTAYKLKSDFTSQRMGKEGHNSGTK

[3] = molecular target: T2, N15 Cro; assay: X-ray crystallography

B1: N15 OR3 28 bp (dsDNA)
DNA 1: GCAAAATTATAGCCAGCTATAAAGAGCG
DNA 2: CGCTCTTTATAGCTGGCTATAATTTTGC
Q: For B1, which Kd [1] is on record?
A: Its Kd is 91 ± 11 nM.

Q: And the Kd [2]?
A: The Kd was 90 ± 7 nM.

B2: N15 symmetric consensus OR 16 bp (dsDNA)
DNA 1: TTTATAGCTAGCTATAA
DNA 2: TTTATAGCTAGCTATAA
Q: Does B2 bind [3]?
A: Result: binds
